Here are results for one sequence from patent US6140490.

The series addresses Complement C1q (Homo sapiens) (UniProt P02745+P02746+P02747). The experiment in a line: filter. The following applies: 2'-NH2 C and U; MgPBS, 37 C; starting pool.

Sequence of Complement C1q (Homo sapiens) (P02745 23-245, chain 1 of 3): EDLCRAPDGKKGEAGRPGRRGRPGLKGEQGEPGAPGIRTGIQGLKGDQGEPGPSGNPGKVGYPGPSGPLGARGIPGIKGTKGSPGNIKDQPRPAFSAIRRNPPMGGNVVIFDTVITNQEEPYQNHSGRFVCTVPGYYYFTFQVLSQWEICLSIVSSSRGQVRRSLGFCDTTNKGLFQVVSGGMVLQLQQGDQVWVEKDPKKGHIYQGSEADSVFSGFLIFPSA
Sequence of Complement C1q (Homo sapiens) (P02746 28-253, chain 2 of 3): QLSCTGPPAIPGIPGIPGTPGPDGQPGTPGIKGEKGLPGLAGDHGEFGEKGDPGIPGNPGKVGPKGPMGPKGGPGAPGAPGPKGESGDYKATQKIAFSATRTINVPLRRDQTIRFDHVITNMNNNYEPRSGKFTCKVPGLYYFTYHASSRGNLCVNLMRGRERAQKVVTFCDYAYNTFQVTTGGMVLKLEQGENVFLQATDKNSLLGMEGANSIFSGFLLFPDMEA
Sequence of Complement C1q (Homo sapiens) (P02747 29-245, chain 3 of 3): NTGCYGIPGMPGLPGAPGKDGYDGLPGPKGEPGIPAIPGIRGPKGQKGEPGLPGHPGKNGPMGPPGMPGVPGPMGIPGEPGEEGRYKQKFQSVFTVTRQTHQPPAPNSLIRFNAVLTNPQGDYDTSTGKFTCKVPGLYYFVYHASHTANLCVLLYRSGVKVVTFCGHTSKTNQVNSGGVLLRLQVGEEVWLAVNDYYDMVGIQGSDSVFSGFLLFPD

Take “GGGAGGACGAUGCGGNNNNNNNNNNNNNNNNNNNNNNNNNNNNNNNNNNNNNNNNNNNNNNNNNNCAGACGACUCGCCCGA [random 50N7 2'-NH2 RNA pool]”: the dissociation constant (Kd) (usually the free concentration of one partner at which half of the binding sites on the other are occupied at equilibrium, for simple one-to-one binding) is 2.3 µM.
